Molar ratio of peptide to monovalent binding site on the antibody and IC50 data for one molecule are collected here from patent US5747334.

The target in experiment [1] is 7E11-C5 monoclonal antibody. Briefly: competitive ELISA, LNCaP extract on plate.
The target in experiment [2] is 7E11-C5 monoclonal antibody. In words: competitive ELISA, peptide 1.75-1130 nM pre-incubated with 7E11-C5 at 30 ng/ml (0.2 nM), LNCaP extract on plate.

No end group written: not given here.

Turning to LYANPGMYSRLHSPA-NH2 [peptide SEQ ID NO 31 (amide form)], in experiment [1], the molar ratio of peptide to monovalent binding site on the antibody at the IC50 was 400. Besides, in experiment [2], the IC50 was 160 nM.
